{"source": "paper PMC6465249", "about": "(Cell Discovery, 2019)", "binders": {"B1": {"name": "AF4H1K1 Fab (Fab, V domains shown)", "VH": "QVQLVESGGGVVQPGTSLRLSCEASGFTSSAYAMHWVRQAPGKGLEWVAVITFDGGYQYYADSVKGRFTISRDISRNTLHLHMNSLRAEDTAVYYCARDPLTKLLPFDWVSGGYFDYWGQGTLVTVSS", "VL": "not shown", "notes": "also called H1 paired with K1"}}, "biological_target": "Recombinant hemagglutinin of H3N2 A/Texas/50/2012, ectodomain, monomeric (Influenza A virus A/Texas/50/2012 (H3N2), UniProt R4L1D1, strain)", "test": "SPR", "conditions": "both partners purified"}
{"binder": "B1", "values": [{"measurement": "Kd", "result": 49, "unit": "nM"}]}
